B1: clone F12: Taxus cuspidata cytochrome P450 oxygenase, full-length clone, SEQ ID NO: 43 (nt) / 56 (aa) (protein, listed as Taxus cuspidata)
chain: MDTFIQHESSPLLLSLTLAVILGTILLLILSGKQYRSSRKLPPGNMGFPLIGETIALISDTPRKFIDDRVKKFGLVFKTSLIGHPAVVICGSSANRFLLSNEEKLVRMSLPNAVLKLLGQDCVMGKTGVEHGIVRTALARALGPQALQNYVAKMSSEIEHHINQKWKGKDEVKVLPLIRSLVFSISTSLFFGINDEHQQKRLHHLLETVAMGLVSIPLDFPGTRFRKALYARSKLDEIMSSVIERRRSDLRSGAASSDQDLLSVLVTFKDERGNSFADKEILDNFSFLLHALYDTTISPLTLIFKLLSSSPECYENIAQEQLEILGNKKDREEISWKDLKDMKYTWQAVQETLRMFPPVYGYIREALTDIDYDGYTIPKGWRILCSPHTTHSKEEYFDEPEEFRPSRFEDQGRHVAPYTFIPFGGGLRICAGWEFAKMEILLFMHHFVKTFSHFIPVDPNEKISRDPLPPIPVKGFSIKPFPRS
B2: clone F9: Taxus cuspidata cytochrome P450 oxygenase, full-length clone, SEQ ID NO: 48 (nt) / 61 (aa) (protein, listed as Taxus cuspidata)
chain: MDSFNFLRGIGADFGGFIQFQSSPAVLSLSLITTILGVLLLWFFLHKNGSSVTLPPGNLGFPFIGETIPFLRALRSETPQTFFDERVKKFGVVFKTRIVGHPTVVLCGPEGNRFLLSNEDKLVQASLPNSSEKLIGKYSILSKRGEEHRILRAALARFLRPQALQGYVAKMSSEIQHHIKQKWKGNDEVKVLPLIRTLIFNIASSLFFGINDEHQQEQLHHLLEAIVLGSLSVPLDFPGTRFRKALDARSKLDEILSSLMESRRRDLRLGTASENQDLLSVLLTFKDERGNPLTDKEIFDNFSFMLHASYDTTVSPTGLMLKLLFSSPDCYEKLVQEQLGIVGNKKEGEEISWNDLKAMKYTCKVVQESMRMLPPVFGSYRKAXTYIHYDGYTIPKGWNIFWSPYTTHGKEEYFNEADKFMPSRFEEGKYVAPYTFLPFGAGLRVCPGWEFAKTEILLFVHHFITTFSSYIPIDPKDKISGDPFPPLPTNGFSMKLFTRS
modifications: not fully specified; (1)..(500) “Xaa” equals any peptide
B3: clone F51: Taxus cuspidata cytochrome P450 oxygenase, full-length clone, SEQ ID NO: 47 (nt) / 60 (aa) (protein, listed as Taxus cuspidata)
chain: MDTIRASFGEVIQPEYSPLIISXALAAFLGIVIFSIFSSTRRSYVNLPPGNLGLPFIGETIQFLGALQSEKPHTFFDERVKKFGKVFKTSLIGDPTVVLCGPAGNRLVLSNEDKLVQSAGPKSFLKLFGEDSVAAKREESHRILRSALGRFLGPHALQNYIGKMNSEMQRHFDDKWKGKDEVKVLPLVRGLIFSIATSLFFNINDDRQREQLHGLLDTILVGSMTIPLNIPGTLFRKAVKARAKLDEILFALIENRRRELRSGLNSGNQDLLSSLLTFKDEKGNPLTDKEILDNFSVMLHASYDTTVSPTVLILKLLASNPECYEKVVQEQLGILASKKEGEEVNWKDLKAMPYTWQAIQEPLXMPXQLLECFEELSLIFSWKAIQFQKDGQLCGXLIVNGREEFFNEPDKFKPSRFEEGKPLDPYTFIPFGAGVRICAGWEFAKAELLLFVHPFVKNFSGCIIIDPNEKISGDPFPPLPTSGQLMKLIPRS
modifications: not fully specified; (1)..(492) “Xaa” equals any peptide
B4: clone F72: Taxus cuspidata cytochrome P450 oxygenase, full-length clone, SEQ ID NO: 54 (nt) / 67 (aa) (protein, listed as Taxus cuspidata)
chain: MDVFYPLKSTVAKFNECFPAILFIVLSAVAGIVLPLLLFLRSKRRSSVGLPPGKLGYPFIGESLLFLKALRSNTVEQFLDERVKNFGNVFKTSLIGHPTVVLCGPAGNRLILANEEKLVQMSWPKSSMKLMGEKSITAKRGEGHMIIRSALQGFFSPGALQKYIGQMSKTIENHINEKWKGNDQVSVVALVGDLVFDISACLFFNINEKHERERLFELLEIIAVGVLAVPVDLPGFAYHRALQARSKLNAILSGLIEKRKMDLSSGLATSNQDLLSVFLTFKDDRGNPCSDEEILDNFSGLLHGSYDTTVSAMACVFKLLSSNPECYEKVVQEQLGILSNKLEGDEITWKDVKSMKYTWQVVQETLRLYPSIFGSFRQAITDIHYNGYIIPKGWKLLWTPYTTHPKEMYFSEPEKFLPSRFDQEGKLVAPYTFLPFGGGQRSCPGWEFSKMEILLSVHHFVKTFSTFTPVDPAEIIARDSLCPLPSNGFSVKLFPRSYSLHTGNQVKKI
B5: clone F82: Taxus cuspidata cytochrome P450 oxygenase, full-length clone, SEQ ID NO: 81 (nt) / 87 (aa) (protein, listed as Taxus cuspidata)
chain: MDAFNVLMGPLAKFDNFMQLGSYSENLSVTITVTAIAVITLLLVLIRSKPQSCVNLPPGKLGYPFIGETLQLLQAFRSNRPQQFFDERQKKFGSVFKTSLIGDRTVVLCGPSGNRLLLSNENKLVEASWPSSSIKLIGEDSIAGKNGEKHRILRAAVNRYLGPGALQNYMAKMRSEIEHHMNEKWKGKEQVKVLPLVKENVFSIATSLFFGVNDDGERERLHDLLETALAGVFSIPLDFPGTNYRKALEARLKLDKVLSSLIERRRSDLRSGVASGNEDLLSVWLTFKDEEGNPLTDKEILDNFSTLLHASYDTTTSALTLTLKLMSSSTECYHKVVQEQLRIVSNKKEGEEISLKDLKDMKYTWQVVQETLRMFPPLFGSFRKAITDIHYDGYTIPKGWKVLWTTYSTHGREEYFNEPEKFMPSRFEEEGRHVAPYTFLPFGAGVRTCPGWEFSKTQILLFLHYFVKTFSGYIPLDPDEKVLGNPVPPLPANGFAIKLFPRPSFDQGSPME
B6: clone F7: Taxus cuspidata cytochrome P450 oxygenase, full-length clone, SEQ ID NO: 83 (nt) / 89 (aa) (protein, listed as Taxus cuspidata)
chain: MDSFTFVTIKMGKIWQVIQVEYILSLTLTAILLFFFRYRNKSSHKLPPGNLGFPFIGETIQFLRSLRSQTPEFFFDERVKKFGPVFKTSLIGAPTVIFCGAAGSRLVLSNEDKLVQMESPSSLKKLMGENSILYKREEEHRILRSALSRFLGPQALQTYIAKMSTEIERHINEKWKGKEEVKTLPLIRGLVFSIASSLFFDINDEPQQERLHHHLESLVAGSMAVRLDFPGTRFRKAVEARSKLDEALHSLIKSRRSDLLSGKASSNQDLLSVLLSFKDERGNPLRDEEILDNFSLILHASYDTTISPMVLTLKLLSSNPECYDKVVQEQFGILANKKEGEEISWKDLKAMKYTWQVVQETLRMFPPLFGSFRKAMVDINYDGYTIPKGWIVLWTTYSTHVKEEYFNEPGKFRPSRFEHDGRHVAPYTFLPFGGGLRTCPGWEFSKTEILLFIHHFVKTFGSYLPVDPNEKISADPFPPLPANGFSIKLFPRS

experiment: not given; assay type: binding, Saccharomyces cerevisiae; conditions: not given
Excerpt: CO-sensor of the 19 full-length cytochrome P450 clones from Taxus, thus far obtained, ten have yielded detectable CO-difference spectra (Table 2). […] These alternative expression systems for cytochrome P450 genes include the yeast Pichia pastoris, for which expression vectors and hosts are commercially available (Invitrogen, Carlsbad, Calif.), as well as established E. coli and baculovirus-insect cell systems for which general expression procedures have been described (Barnes, Methods Enzymol. 272:1–14, 1996;Gonzalez et al., Methods Enzymol. 206:93–99, 1991;Lee et al., Methods Enzymol. 272:86–98, 1996;and Lupien et al., Arch. Biochem. Biophys. 368:181–192, 1999).
Appropriate restriction sites were introduced by standard PCR methods (Innis et al., PCR Protocols: A Guide to Methods and Applications, Academic Press, San Diego, Calif., 1990) immediately upstream of the ATG start codon and downstream of the stop codon of all full-length cytochrome P450 clones. These modified amplicons were gel-purified, digested with the corresponding restriction enzymes, and then ligated into the expression vector pYeDP60. The vector/insert junctions were sequenced to ensure that no errors had been introduced by the PCR construction. Verified clones were transformed into yeast using the lithium acetate method (Ito et al., J. Bacteriol. 153:163–168, 1983). Isolated transformants were grown to stationary phase in SGI medium (Pompon et al., Methods Enzymol. 272:51–64, 1996), and used as inocula for a large-scale expression culture grown in YPL medium (Pompon et al., Methods Enzymol. 272:51–64, 1996). Approximately 24 hours after induction of cytochrome P450 expression with galactose (to 10% final concentration), a portion of the yeast cell culture was harvested by centrifugation. One-half of the culture was treated with carbon monoxide, and the cytochrome P450 CO-difference spectrum was recorded directly (using untreated cells as a control) by spectrophotometry (Omura and Sato, J. Biol. Chem. 239:2370–2378, 1964).

Molecule | CO diff. spec.
B1 | +
B2 | +
B3 | +
B4 | +
B5 | −
B6 | −

experiment: In vivo assay of yeast cells expressing recombinant oxygenases, radio-HPLC, substrate taxadiene; assay type: cell-based, Saccharomyces cerevisiae; conditions: assayed with Taxadiene; graded symbols, key not given
Excerpt: (§1) Transformed yeast cells that fimctionally express a recombinant cytochrome P450 gene from Taxus (by CO-difference spectrum) can be tested in vivo for their ability to oxygenate (hydroxylate or epoxidize) taxoid substrates fed exogenously to the cells, thereby eliminating the need for microsome isolation for preliminary in vitro assays.
(§2) Accordingly, several clones of the available full-length clones were expressed in induced yeast host cells.
(§3) Isolated transformants for each full-length cytochrome P450 clone shown to express a functional enzyme by CO-difference spectrum (ten clones) were grown to stationary phase in 2 mL SGI medium at 30° C. and used to inoculate a 10-mL expression culture (in YPL medium). Approximately 8 hours after induction, cells were harvested by centrifugation (10 minutes at 1500 rpm), and the pellet was resuspended in 2 mL of fresh YPL medium.
(§4) To eliminate additional complication and uncertainty associated with microsome isolations for in vitro assays, 10^6 dpm of [20-^3H3]taxa-4(5),11(12)-diene (16 Ci/mol) or [20-^3H2]taxa-4(20),11(12)-diene-5-α-ol (4.0 Ci/mol), or other taxoid substrate were added directly to the cell suspension to assay conversion in vivo. After 12 hours of incubation at 30° C. with agitation (250 rpm), the mixture was treated for 15 minutes in a sonication bath and extracted 3 times with 2 mL diethyl ether to insure isolation of the biosynthetic products. These ether extracts, containing residual substrate and derived product(s), were concentrated to dryness, resuspended in 200 μL of CH3CN, and filtered. These samples were analyzed by radio-HPLC (Hefner et al., Chemistry and Biology 3:479–489, 1996) using a 4.6 mm i.d.×250 mm column of Econosil C18, 5 μ (Alltech, Deerfield, Ill.) with a gradient of CH3CN in H2O from 0% to 85% (10 minutes at 1 mL/minute), then to 100% CH3CN over 40 minutes.

Molecule | product identified HPLC peak
B1 | No
B2 | No
B3 | No
B4 | No
B5 | No
B6 | No

experiment: In vivo assay of yeast cells expressing recombinant oxygenases, radio-HPLC, substrate taxadien-5α-ol; assay type: cell-based, Saccharomyces cerevisiae; conditions: yeast transformants, radio-HPLC and GC-MS
Excerpt: as §1, §2, §3, §4

Molecule | product formed from taxadien-5α-ol
B1 | more polar products
B2 | more polar products
B3 | diol products
